In the supplement of paper PMC10567573:

B1: SFRS1 (parent)
chain: RDIDLKNRRGGPPFAFVEFEDPRD
B2: SMOC2 (parent)
chain: QKPLCASDGRTFLSRCEFQRAKCK

Variants of: B1
Assay: protein stability index of a GFP-peptide fusion (GPS, HEK-293T) (PSI 1-6); higher = more stable
Conditions: c terminus: a fixed tail appended
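Also: lentivirally expressed fusions sorted by FACS into six bins by GFP to DsRed ratio, PSI derived from sequencing read proportions per bin multiplied by bin number.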

Variant	protein stability index
RDIDLKNRRGGPPFAFVEFEDPWD	3.62
RDIDLKNRRGGPPFAFVEFEDPSD	4.07
RDIDLKNRRGGPPFAFVEFEDPQD	4.15
RDIDLKNRRGGPPFAFVEFEDPKD	4.14
RDIDLKNRRGGPPFAFVEFEDPDD	4.18
RDIDLKNRRGGPPFAFVEFEDPID	3.67
RDIDLKNRRGGPPFAFVEFEDPED	4.1
RDIDLKNRRGGPPFAFVEFEDPPD	4.53
RDIDLKNRRGGPPFAFVEFEDPHD	4.17
RDIDLKNRRGGPPFAFVEFEDPMD	3.79
RDIDLKNRRGGPPFAFVEFEDPYD	3.19
RDIDLKNRRGGPPFAFVEFEDPLD	3.72
RDIDLKNRRGGPPFAFVEFEDPFD	3.37
RDIDLKNRRGGPPFAFVEFEDPAD	3.88
RDIDLKNRRGGPPFAFVEFEDPVD	3.45
RDIDLKNRRGGPPFAFVEFEDPND	4.24
RDIDLKNRRGGPPFAFVEFEDPCD	3.67
RDIDLKNRRGGPPFAFVEFEDPGD	3.84
RDIDLKNRRGGPPFAFVEFEDPTD	4.33
RDIDLKNRRGGPPFAFVEVEDPRD	3.03
RDIDLKNRRGGPPFAFVEAEDPRD	2.95
RDIDLKNRRGGPPFAFVESEDPRD	3.19
RDIDLKNRRGGPPFAFVECEDPRD	3.05
RDIDLKNRRGGPPFAFVELEDPRD	4.22
RDIDLKNRRGGPPFAFVEEEDPRD	4.77
RDIDLKNRRGGPPFAFVEMEDPRD	3.19

Variant	protein stability index
RDIDLKNRRGGPPFAFVEIEDPRD	3.27
RDIDLKNRRGGPPFAFVEYEDPRD	4.11
RDIDLKNRRGGPPFAFVEDEDPRD	3.69
RDIDLKNRRGGPPFAFVETEDPRD	3.47
RDIDLKNRRGGPPFAFVEPEDPRD	3.85
RDIDLKNRRGGPPFAFVEKEDPRD	3.18
RDIDLKNRRGGPPFAFVEQEDPRD	3.94
RDIDLKNRRGGPPFAFVEWEDPRD	3.39
RDIDLKNRRGGPPFAFVEREDPRD	3.38
RDIDLKNRRGGPPFAFVEHEDPRD	3.95
RDIDLKNRRGGPPFAFVEGEDPRD	4.03
RDIDLKNRRGGPPFAFVENEDPRD	3.38
RDIDLKNRRGGPPFAFVEFEDPRP	3.42
RDIDLKNRRGGPPFAFVEFEDPRR	3.19
RDIDLKNRRGGPPFAFVEFEDPRK	3.65
RDIDLKNRRGGPPFAFVEFEDPRC	2.46
RDIDLKNRRGGPPFAFVEFEDPRF	2.15
RDIDLKNRRGGPPFAFVEFEDPRE	4.76
RDIDLKNRRGGPPFAFVEFEDPRL	2.31
RDIDLKNRRGGPPFAFVEFEDPRS	3.02
RDIDLKNRRGGPPFAFVEFEDPRW	1.33
RDIDLKNRRGGPPFAFVEFEDPRI	2.72
RDIDLKNRRGGPPFAFVEFEDPRN	2.9
RDIDLKNRRGGPPFAFVEFEDPRV	3.11
RDIDLKNRRGGPPFAFVEFEDPRM	2.64
RDIDLKNRRGGPPFAFVEFEDPRY	2.5

Variant	protein stability index
RDIDLKNRRGGPPFAFVEFEDPRG	3.47
RDIDLKNRRGGPPFAFVEFEDPRH	3.59
RDIDLKNRRGGPPFAFVEFEDPRA	3.74
RDIDLKNRRGGPPFAFVEFEDPRT	3.13
RDIDLKNRRGGPPFAFVEFEDPRQ	3.39
RDIDLKNRRGGPPFAFVEFEDARD	3.93
RDIDLKNRRGGPPFAFVEFEDSRD	3.93
RDIDLKNRRGGPPFAFVEFEDVRD	3.76
RDIDLKNRRGGPPFAFVEFEDWRD	3.55
RDIDLKNRRGGPPFAFVEFEDMRD	3.76
RDIDLKNRRGGPPFAFVEFEDKRD	4.09
RDIDLKNRRGGPPFAFVEFEDTRD	3.99
RDIDLKNRRGGPPFAFVEFEDERD	4.43
RDIDLKNRRGGPPFAFVEFEDNRD	4.15
RDIDLKNRRGGPPFAFVEFEDIRD	3.94
RDIDLKNRRGGPPFAFVEFEDDRD	4.5
RDIDLKNRRGGPPFAFVEFEDRRD	3.62
RDIDLKNRRGGPPFAFVEFEDFRD	2.9
RDIDLKNRRGGPPFAFVEFEDYRD	3.58
RDIDLKNRRGGPPFAFVEFEDLRD	3.19
RDIDLKNRRGGPPFAFVEFEDCRD	3.8
RDIDLKNRRGGPPFAFVEFEDHRD	3.63
RDIDLKNRRGGPPFAFVEFEDQRD	4.44
RDIDLKNRRGGPPFAFVEFEDGRD	4.03
RDIDLKNRRGGPPFAFVEFLDPRD	2.71
RDIDLKNRRGGPPFAFVEFIDPRD	2.56

Variant	protein stability index
RDIDLKNRRGGPPFAFVEFSDPRD	2.89
RDIDLKNRRGGPPFAFVEFGDPRD	3.14
RDIDLKNRRGGPPFAFVEFVDPRD	3.02
RDIDLKNRRGGPPFAFVEFCDPRD	2.67
RDIDLKNRRGGPPFAFVEFADPRD	3.06
RDIDLKNRRGGPPFAFVEFPDPRD	3.66
RDIDLKNRRGGPPFAFVEFMDPRD	2.57
RDIDLKNRRGGPPFAFVEFDDPRD	3.94
RDIDLKNRRGGPPFAFVEFKDPRD	3.52
RDIDLKNRRGGPPFAFVEFQDPRD	2.91
RDIDLKNRRGGPPFAFVEFFDPRD	2.67
RDIDLKNRRGGPPFAFVEFNDPRD	3.68
RDIDLKNRRGGPPFAFVEFHDPRD	3.21
RDIDLKNRRGGPPFAFVEFYDPRD	2.46
RDIDLKNRRGGPPFAFVEFTDPRD	3.3
RDIDLKNRRGGPPFAFVEFRDPRD	2.91
RDIDLKNRRGGPPFAFVEFWDPRD	2.72
RDIDLKNRRGGPPFAFVLFEDPRD	1.9
RDIDLKNRRGGPPFAFVIFEDPRD	2.24
RDIDLKNRRGGPPFAFVKFEDPRD	2.64
RDIDLKNRRGGPPFAFVRFEDPRD	3.13
RDIDLKNRRGGPPFAFVTFEDPRD	2.74
RDIDLKNRRGGPPFAFVMFEDPRD	2.35
RDIDLKNRRGGPPFAFVSFEDPRD	2
RDIDLKNRRGGPPFAFVVFEDPRD	2.2
RDIDLKNRRGGPPFAFVWFEDPRD	1.88

Variant	protein stability index
RDIDLKNRRGGPPFAFVHFEDPRD	2.51
RDIDLKNRRGGPPFAFVPFEDPRD	2.99
RDIDLKNRRGGPPFAFVYFEDPRD	2.3
RDIDLKNRRGGPPFAFVNFEDPRD	3.24
RDIDLKNRRGGPPFAFVQFEDPRD	2.53
RDIDLKNRRGGPPFAFVGFEDPRD	2.77
RDIDLKNRRGGPPFAFVEFEAPRD	3.1
RDIDLKNRRGGPPFAFVEFEGPRD	2.55
RDIDLKNRRGGPPFAFVEFEHPRD	3.34
RDIDLKNRRGGPPFAFVEFELPRD	2.51
RDIDLKNRRGGPPFAFVEFEWPRD	2.95
RDIDLKNRRGGPPFAFVEFEVPRD	3.02
RDIDLKNRRGGPPFAFVEFENPRD	3.38
RDIDLKNRRGGPPFAFVEFECPRD	2.73
RDIDLKNRRGGPPFAFVEFETPRD	3.72
RDIDLKNRRGGPPFAFVEFEKPRD	3.73
RDIDLKNRRGGPPFAFVEFEMPRD	2.8
RDIDLKNRRGGPPFAFVEFESPRD	3.26
RDIDLKNRRGGPPFAFVEFEEPRD	3.99
RDIDLKNRRGGPPFAFVEFEQPRD	3.54
RDIDLKNRRGGPPFAFVEFEIPRD	2.63
RDIDLKNRRGGPPFAFVEFEPPRD	3.45
RDIDLKNRRGGPPFAFVEFEYPRD	3.18
RDIDLKNRRGGPPFAFVEFERPRD	3.08
RDIDLKNRRGGPPFAFVEFEFPRD	2.65

Variants of: B2
Assay: as above
Conditions: c terminus: a fixed tail appended

Variant	protein stability index
AKPLCASDGRTFLSRCEFQRAKCK	2.81
CKPLCASDGRTFLSRCEFQRAKCK	1.87
RKPLCASDGRTFLSRCEFQRAKCK	2.76
LKPLCASDGRTFLSRCEFQRAKCK	2.17
YKPLCASDGRTFLSRCEFQRAKCK	2.97
MKPLCASDGRTFLSRCEFQRAKCK	2.78
FKPLCASDGRTFLSRCEFQRAKCK	3.05
IKPLCASDGRTFLSRCEFQRAKCK	2.19
TKPLCASDGRTFLSRCEFQRAKCK	3.41
SKPLCASDGRTFLSRCEFQRAKCK	2.68
EKPLCASDGRTFLSRCEFQRAKCK	3.39
HKPLCASDGRTFLSRCEFQRAKCK	2.48
NKPLCASDGRTFLSRCEFQRAKCK	3.36
GKPLCASDGRTFLSRCEFQRAKCK	3.23
VKPLCASDGRTFLSRCEFQRAKCK	2.58
DKPLCASDGRTFLSRCEFQRAKCK	2.68
KKPLCASDGRTFLSRCEFQRAKCK	3.41
PKPLCASDGRTFLSRCEFQRAKCK	2.64
QKALCASDGRTFLSRCEFQRAKCK	2.36
QKKLCASDGRTFLSRCEFQRAKCK	2.42

Variant	protein stability index
QKWLCASDGRTFLSRCEFQRAKCK	1.53
QKELCASDGRTFLSRCEFQRAKCK	4.05
QKGLCASDGRTFLSRCEFQRAKCK	2.5
QKNLCASDGRTFLSRCEFQRAKCK	2.2
QKYLCASDGRTFLSRCEFQRAKCK	2.83
QKCLCASDGRTFLSRCEFQRAKCK	2.39
QKFLCASDGRTFLSRCEFQRAKCK	1.89
QKTLCASDGRTFLSRCEFQRAKCK	2.81
QKVLCASDGRTFLSRCEFQRAKCK	2.31
QKLLCASDGRTFLSRCEFQRAKCK	2.67
QKQLCASDGRTFLSRCEFQRAKCK	2.28
QKRLCASDGRTFLSRCEFQRAKCK	3.19
QKHLCASDGRTFLSRCEFQRAKCK	2.17
QKILCASDGRTFLSRCEFQRAKCK	2.16
QKMLCASDGRTFLSRCEFQRAKCK	3.12
QAPLCASDGRTFLSRCEFQRAKCK	2.61
QPPLCASDGRTFLSRCEFQRAKCK	3.18
QIPLCASDGRTFLSRCEFQRAKCK	3.51
QLPLCASDGRTFLSRCEFQRAKCK	2.99
QFPLCASDGRTFLSRCEFQRAKCK	2.75

Variant	protein stability index
QEPLCASDGRTFLSRCEFQRAKCK	3.78
QWPLCASDGRTFLSRCEFQRAKCK	2.48
QSPLCASDGRTFLSRCEFQRAKCK	2.93
QDPLCASDGRTFLSRCEFQRAKCK	3.62
QTPLCASDGRTFLSRCEFQRAKCK	3.18
QYPLCASDGRTFLSRCEFQRAKCK	2.48
QCPLCASDGRTFLSRCEFQRAKCK	2.03
QRPLCASDGRTFLSRCEFQRAKCK	3.47
QMPLCASDGRTFLSRCEFQRAKCK	3.87
QGPLCASDGRTFLSRCEFQRAKCK	3.16
QVPLCASDGRTFLSRCEFQRAKCK	2.97
QKPMCASDGRTFLSRCEFQRAKCK	2.29
QKPICASDGRTFLSRCEFQRAKCK	2.31
QKPDCASDGRTFLSRCEFQRAKCK	3.83
QKPHCASDGRTFLSRCEFQRAKCK	2.59
QKPKCASDGRTFLSRCEFQRAKCK	2.52
QKPFCASDGRTFLSRCEFQRAKCK	2.18
QKPECASDGRTFLSRCEFQRAKCK	3.77
QKPNCASDGRTFLSRCEFQRAKCK	3.08
